Results as given in patent publication US20220411483A1 (Chugai, published 2022).
Residue numbers refer to the chain shown, from its start.

B1: IL6R-P555/IL6R-L (antibody, human IgG1, kappa)
heavy: QVQLQESGPGLVKPSETLSLTCAVSGHSISHDHAWSWVRQPPGEGLEWIGFISYSGITNYNPSLQGRVTISRDNSKNTLYLQMNSLRAEDTAVYYCARSLARTTAMDYWGEGTLVTVSSASTKGPSVFPLAPSSKSTSGGTAALGCLVKDYFPEPVTVSWNSGALTSGVHTFPAVLQSSGLYSLSSVVTVPSSSLGTQTYICNVNHKPSNTKVDKKVEPKSCDKTHTCPPCPAPELLGDDSVFLFPPKPKDTLMISRTPEVTCVVVDVSDEDGEVKFNWYVDGVEVHNAKTKPREEQYNSTYRVVSVLTVLHQDWLNGKEYKCKVSNKALPAPIEKTISKAKGQPREPQVYTLPPSRDELTKNQVSLTCLVKGFYPSDIAVEWESNGQPENNYKTTPPVLDSDGSFFLYSKLTVDKSRWQQGNVFSCSVMHEALHNHYTQKSLSLSP
light: not shown
B2: IL6R-P749/IL6R-L (antibody, human IgG1, kappa)
heavy: B1 heavy with D239Q, F243M, D270P, G273P, Y298E, K324E, A332H
light: not shown
B3: IL6R-P562/IL6R-L (antibody, human IgG1, kappa)
heavy: B1 heavy with E235D, D270E
light: not shown
B4: IL6R-P748/IL6R-L (antibody, human IgG1, kappa)
heavy: B1 heavy with D239Q, F243M, D270P, G273P, Y298E, K324A, A332H
light: not shown
B5: IL6R-P727/IL6R-L (antibody, human IgG1, kappa)
heavy: B1 heavy with D239Q, F243M, D270P, G273P, Y298E, A332H
light: not shown
B6: IL6R-P588/IL6R-L (antibody, human IgG1, kappa)
heavy: B1 heavy with D239G, V266I, S269A, D270E
light: not shown
B7: IL6R-P744/IL6R-L (antibody, human IgG1, kappa)
heavy: B1 heavy with D239G, D270H, G273P, S300A, K324A
light: not shown
B8: IL6R-P733/IL6R-L (antibody, human IgG1, kappa)
heavy: B1 heavy with L237F, D239Q, F243M, D270P, G273P, Y298E, S326H
light: not shown
B9: IL6R-P745/IL6R-L (antibody, human IgG1, kappa)
heavy: B1 heavy with D239G, D270H, G273P, S300A, K324E
light: not shown
B10: IL6R-P559/IL6R-L (antibody, human IgG1, kappa)
heavy: B1 heavy with D270E
light: not shown
B11: IL6R-P556/IL6R-L (antibody, human IgG1, kappa)
heavy: B1 heavy with E235D
light: not shown
B12: IL6R-P691/IL6R-L (antibody, human IgG1, kappa)
heavy: B1 heavy with L237F, D239Q, F243M, D270H, G273P, Y298E
light: not shown
B13: IL6R-P746/IL6R-L (antibody, human IgG1, kappa)
heavy: B1 heavy with L237F, D239Q, F243M, D270H, G273P, Y298E, K324A
light: not shown
B14: IL6R-P729/IL6R-L (antibody, human IgG1, kappa)
heavy: B1 heavy with L237F, D239Q, F243M, D270P, G273P, Y298E
light: not shown
B15: IL6R-P743/IL6R-L (antibody, human IgG1, kappa)
heavy: B1 heavy with D239G, D270H, G273P, A329G, A332S, P333S
light: not shown
B16: IL6R-P737/IL6R-L (antibody, human IgG1, kappa)
heavy: B1 heavy with D239Q, F243M, D270P, G273P, Y298E, S326H, A332H
light: not shown
B17: IL6R-P750/IL6R-L (antibody, human IgG1, kappa)
heavy: B1 heavy with L237F, D239Q, F243M, D270P, G273P, Y298E, K324A
light: not shown
B18: IL6R-P751/IL6R-L (antibody, human IgG1, kappa)
heavy: B1 heavy with L237F, D239Q, F243M, D270P, G273P, Y298E, K324E
light: not shown
B19: IL6R-P747/IL6R-L (antibody, human IgG1, kappa)
heavy: B1 heavy with L237F, D239Q, F243M, D270H, G273P, Y298E, K324E
light: not shown

These binders were tested against T1, human FcγRIIIa V type extracellular domain with C-terminal His tag (human, UniProt P08637 17-208) (assay: SPR, KD of IL6R-G1d/IL6R-L divided by KD of variant).
T1 construct: extracellular domain; also called FcgRIIIaV
T1 sequence (P08637 17-208 F176V): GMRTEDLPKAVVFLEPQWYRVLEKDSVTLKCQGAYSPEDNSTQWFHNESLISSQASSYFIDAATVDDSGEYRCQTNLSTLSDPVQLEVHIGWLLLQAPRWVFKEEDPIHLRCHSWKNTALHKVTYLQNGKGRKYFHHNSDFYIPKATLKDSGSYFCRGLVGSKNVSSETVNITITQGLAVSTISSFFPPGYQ

Row | Binder | Relative FcgRIIIaV-binding Activity
1 | B1 | 0.009
2 | B2 | 0.004
3 | B3 | 0.007
4 | B4 | 0.005
5 | B5 | 0.007
6 | B6 | 0.011
7 | B7 | 0.007
8 | B8 | 0.007
9 | B9 | 0.007
10 | B10 | 0.009
11 | B11 | 0.007
12 | B12 | 0.004
13 | B13 | 0.005
14 | B14 | 0.006
15 | B15 | 0.006
16 | B16 | 0.007
17 | B17 | 0.006
18 | B18 | 0.007
19 | B19 | 0.006

The binders below were run against T2, human FcγRIa extracellular domain with C-terminal His tag (human, UniProt P12314 16-292) in the same assay as above.
T2 construct: Whole entry named; also called FcgRIa
T2 sequence (P12314 16-292): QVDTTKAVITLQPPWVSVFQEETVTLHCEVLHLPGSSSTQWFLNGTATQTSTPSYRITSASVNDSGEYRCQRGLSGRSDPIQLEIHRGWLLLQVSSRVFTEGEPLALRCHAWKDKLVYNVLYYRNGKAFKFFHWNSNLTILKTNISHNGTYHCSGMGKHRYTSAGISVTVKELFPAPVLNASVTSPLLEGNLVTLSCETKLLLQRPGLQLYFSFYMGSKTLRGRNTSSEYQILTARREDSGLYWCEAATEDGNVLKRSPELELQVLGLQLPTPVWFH

Row | Binder | Relative FcgRIa-binding Activity
20 | B1 | 0.029
21 | B2 | 0.006
22 | B3 | 0.076
23 | B4 | 0.003
24 | B5 | 0.005
25 | B6 | 0.229
26 | B7 | 0.032
27 | B8 | 0.002
28 | B9 | 0.064
29 | B10 | 0.035
30 | B11 | 0.086
31 | B12 | 0.002
32 | B13 | 0.043
33 | B14 | 0.001
34 | B15 | 0.018
35 | B16 | 0.007
36 | B17 | 0.001
37 | B18 | 0.001
38 | B19 | 0.004

The binders below were run against T3, human FcγRIIa R type extracellular domain with C-terminal His tag (human, UniProt P12318 34-217) in the same assay as above.
T3 construct: extracellular domain; also called FcgRIIaR
T3 sequence (looked up): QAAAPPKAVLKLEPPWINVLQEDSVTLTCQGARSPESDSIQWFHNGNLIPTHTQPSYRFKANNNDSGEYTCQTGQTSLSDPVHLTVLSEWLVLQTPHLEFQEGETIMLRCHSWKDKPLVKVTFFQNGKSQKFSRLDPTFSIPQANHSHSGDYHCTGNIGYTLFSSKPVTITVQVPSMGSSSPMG

Row | Binder | Relative FcgRIIaR-binding Activity
39 | B1 | 0.39
40 | B2 | 0.05
41 | B3 | 0.55
42 | B4 | 0.03
43 | B5 | 0.03
44 | B6 | 0.69
45 | B7 | 0.06
46 | B8 | 0.08
47 | B9 | 0.04
48 | B10 | 0.46
49 | B11 | 0.46
50 | B12 | 0.04
51 | B13 | 0.06
52 | B14 | 0.07
53 | B15 | 0.06
54 | B16 | 0.03
55 | B17 | 0.02
56 | B18 | 0.06
57 | B19 | 0.04

These binders were tested against T4, human FcγRIIb extracellular domain with C-terminal His tag (human, UniProt P31994 43-217) in the same assay as above.
T4 construct: extracellular domain; also called FcgRIIb
T4 sequence (looked up): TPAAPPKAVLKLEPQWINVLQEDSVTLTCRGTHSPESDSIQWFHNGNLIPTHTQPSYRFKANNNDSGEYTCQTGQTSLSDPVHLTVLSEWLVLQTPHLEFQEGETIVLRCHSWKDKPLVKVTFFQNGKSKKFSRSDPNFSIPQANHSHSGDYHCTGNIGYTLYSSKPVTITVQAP

Row | Binder | Relative FcgRIIb-binding Activity
58 | B1 | 10
59 | B2 | 0.5
60 | B3 | 16.2
61 | B4 | 0.3
62 | B5 | 0.8
63 | B6 | 55.3
64 | B7 | 0.7
65 | B8 | 0.5
66 | B9 | 0.7
67 | B10 | 15
68 | B11 | 11.7
69 | B12 | 0.9
70 | B13 | 0.7
71 | B14 | 0.7
72 | B15 | 0.6
73 | B16 | 0.5
74 | B17 | 0.5
75 | B18 | 0.6
76 | B19 | 0.8

Each binder was assayed against T5, human FcγRIIa H type extracellular domain with C-terminal His tag (human, UniProt P12318 34-217) in the same assay as above.
T5 construct: extracellular domain; also called FcgRIIaH
T5 sequence (looked up): T3 sequence (looked up) with R134H

Row | Binder | Relative FcgRIIaH-binding Activity
77 | B1 | 0.021
78 | B2 | 0.009
79 | B3 | 0.022
80 | B4 | 0.01
81 | B5 | 0.015
82 | B6 | 0.034
83 | B7 | 0.013
84 | B8 | 0.014
85 | B9 | 0.014
86 | B10 | 0.021
87 | B11 | 0.019
88 | B12 | 0.01
89 | B13 | 0.01
90 | B14 | 0.013
91 | B15 | 0.013
92 | B16 | 0.016
93 | B17 | 0.013
94 | B18 | 0.013
95 | B19 | 0.012

What follows are binders tested against T2, human FcγRIa extracellular domain with … (assay: SPR, antibody captured, FcgR analyte).

Row | Binder | Kd [µM]
96 | B1 | 0.011
97 | B2 | 0.052
98 | B3 | 0.0042
99 | B4 | 0.1
100 | B5 | 0.071
101 | B6 | 0.0014
102 | B7 | 0.01
103 | B8 | 0.2
104 | B9 | 0.005
105 | B10 | 0.0091
106 | B11 | 0.0037
107 | B12 | 0.13
108 | B13 | 0.0074
109 | B14 | 0.22
110 | B15 | 0.018
111 | B16 | 0.046
112 | B17 | 0.23
113 | B18 | 0.24
114 | B19 | 0.09

These binders were tested against T3, human FcγRIIa R type extracellular … (assay: SPR, antibody captured, FcgR analyte).

Row | Binder | Kd [µM]
115 | B1 | 2.8
116 | B2 | 22
117 | B3 | 2
118 | B4 | 39
119 | B5 | 34
120 | B6 | 1.6
121 | B7 | 18
122 | B8 | 13
123 | B9 | 26
124 | B10 | 2.4
125 | B11 | 2.4
126 | B12 | 28
127 | B13 | 18
128 | B14 | 16
129 | B15 | 20
130 | B16 | 37
131 | B17 | 49
132 | B18 | 19
133 | B19 | 27

These binders were tested against T4, human FcγRIIb extracellular domain with … (assay: SPR, antibody captured, FcgR analyte).

Row | Binder | Kd [µM]
134 | B1 | 0.21
135 | B2 | 4
136 | B3 | 0.13
137 | B4 | 6.2
138 | B5 | 2.7
139 | B6 | 0.038
140 | B7 | 3.2
141 | B8 | 4.5
142 | B9 | 3.1
143 | B10 | 0.14
144 | B11 | 0.18
145 | B12 | 2.3
146 | B13 | 3
147 | B14 | 3
148 | B15 | 3.6
149 | B16 | 4.3
150 | B17 | 4
151 | B18 | 3.5
152 | B19 | 2.7
